Reference: PMC4928909, “Roles of C-Terminal Region of Yeast and Human Rad52 in Rad51-Nucleoprotein Filament Formation and ssDNA Annealing”

What was measured:
Assay in all cases: EMSA; 3 mM Mg acetate; 30 mM Tris-acetate pH 7.5, 3 mM Mg acetate, 20 mM NaCl, 37 C, 15 min, 100 nM labeled ssDNA; 6% PAGE in TBE
yRad52 = yRad52 (Saccharomyces cerevisiae, UniProt P06778 1-471); details: protein: recombinant; tags: C-terminal His6; chain copies: 10; label: 5'-32P; single strand
hRAD52NM = molecular target: T1, hRAD52NM (Homo sapiens, UniProt P43351 1-290); details: protein: recombinant; tags: C-terminal His6; chain copies: 11; label: 5'-32P; single strand
T1 sequence: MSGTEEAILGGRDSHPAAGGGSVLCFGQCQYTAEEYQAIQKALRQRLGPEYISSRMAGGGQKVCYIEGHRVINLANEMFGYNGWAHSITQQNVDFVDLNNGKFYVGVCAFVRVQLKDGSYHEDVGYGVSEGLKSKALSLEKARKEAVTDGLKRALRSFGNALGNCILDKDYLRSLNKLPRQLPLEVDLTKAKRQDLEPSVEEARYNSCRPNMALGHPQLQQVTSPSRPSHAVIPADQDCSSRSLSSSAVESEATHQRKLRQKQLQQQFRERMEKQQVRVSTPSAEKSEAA

hRAD52 = molecular target: T2, hRAD52 (Homo sapiens, UniProt P43351 1-418); details: protein: recombinant; tags: C-terminal His6; label: 5'-32P; single strand
T2 sequence: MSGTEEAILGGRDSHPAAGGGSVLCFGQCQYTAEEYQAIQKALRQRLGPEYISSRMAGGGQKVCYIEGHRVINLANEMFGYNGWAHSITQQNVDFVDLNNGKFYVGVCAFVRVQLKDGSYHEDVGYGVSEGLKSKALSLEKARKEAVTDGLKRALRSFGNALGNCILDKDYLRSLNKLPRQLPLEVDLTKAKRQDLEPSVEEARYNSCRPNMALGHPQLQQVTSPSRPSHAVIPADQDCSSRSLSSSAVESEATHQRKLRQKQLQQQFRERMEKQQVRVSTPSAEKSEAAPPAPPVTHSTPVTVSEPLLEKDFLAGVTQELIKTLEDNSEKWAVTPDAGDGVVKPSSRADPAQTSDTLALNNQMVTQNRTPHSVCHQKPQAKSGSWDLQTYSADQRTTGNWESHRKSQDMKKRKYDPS

Measured: binding result

Sequence of yRad52 (P06778 whole entry): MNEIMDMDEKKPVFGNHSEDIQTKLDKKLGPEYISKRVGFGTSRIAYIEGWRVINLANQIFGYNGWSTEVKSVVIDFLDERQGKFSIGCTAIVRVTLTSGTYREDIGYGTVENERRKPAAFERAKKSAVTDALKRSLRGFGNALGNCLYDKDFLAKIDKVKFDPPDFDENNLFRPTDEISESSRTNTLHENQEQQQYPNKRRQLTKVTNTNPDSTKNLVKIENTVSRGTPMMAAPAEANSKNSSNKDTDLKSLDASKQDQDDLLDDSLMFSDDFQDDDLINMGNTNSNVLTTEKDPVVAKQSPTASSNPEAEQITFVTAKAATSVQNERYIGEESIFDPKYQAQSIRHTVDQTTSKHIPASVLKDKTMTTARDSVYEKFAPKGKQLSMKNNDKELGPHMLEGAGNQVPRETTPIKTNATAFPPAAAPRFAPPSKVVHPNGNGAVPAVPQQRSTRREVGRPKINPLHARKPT

B1: TSO252 (ssDNA)
DNA: TGGTTGAGTACTCACCAGTCACAGAAAAGCATCTTACGGATGGCATGACAGTAAGAGAATTATGCAGTGC
binds: all assays above
